Results: publication PMC12349009 (2025)
Residue numbers refer to the chain shown, from its start.

Assays:
[1] = target: soluble recombinant NKp65 ectodomain with threonine at position 131 (NKp65-Thr131) (human) (UniProt D3W0D1); assay: SPR; single-cycle kinetics, Biacore X100; 73.4 ± 12.4 RU biotinylated NKp65 immobilised on a streptavidin chip (Sensor Chip SA), pulsed 120 s with sKACL 0.247-20 nM, flow 30 µl/min, final dissociation 600 s; bivalent binding model
[2] = target: soluble recombinant NKp65 ectodomain with proline at position 131 (NKp65-Pro131) (human) (UniProt D3W0D1); assay: as above
[3] = target: soluble recombinant NKp65 ectodomain with threonine at position 131 (NKp65-Thr131) (human) (UniProt D3W0D1); assay: SPR; mean of KD1 (bivalent model) from at least three measurements, protein produced independently twice, 2 different chip lots; biotinylated NKp65 immobilised on a streptavidin chip, sKACL as analyte; which runs were pooled is not told
[4] = target: soluble recombinant NKp65 ectodomain with proline at position 131 (NKp65-Pro131) (human) (UniProt D3W0D1); assay: as above
[5] = target: T1, soluble recombinant NKp65 ectodomain with threonine at position 131 (NKp65-Thr131) (human, UniProt D3W0D1 63-207, substitution of proline by threonine at amino acid position 131, biotin on the N-terminal BirA tag (enzymatic, BirA ligase)); assay: SPR; KD1 of bivalent fit, multi-cycle kinetics
T1 sequence: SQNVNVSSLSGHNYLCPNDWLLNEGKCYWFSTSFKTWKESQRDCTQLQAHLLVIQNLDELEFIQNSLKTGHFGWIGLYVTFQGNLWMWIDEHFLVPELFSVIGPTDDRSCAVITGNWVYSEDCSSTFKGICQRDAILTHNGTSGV

[6] = target: T2, soluble recombinant NKp65 ectodomain with proline at position 131 (NKp65-Pro131) (human, UniProt D3W0D1 63-207, biotin on the N-terminal BirA tag (enzymatic, BirA ligase)); assay: SPR; KD1 of bivalent fit, multi-cycle kinetics
T2 chain: T1 sequence with T69P

Kd [1]: 0.0203 µM
Kd [2]: 0.0026 µM
KD1 (bivalent fit) [3]: 35 nM
KD1 (bivalent fit) [4]: 8.2 nM
Kd [5]: 0.0571 µM
Kd [6]: 0.0136 µM
B1: recombinant KACL ectodomain (sKACL) (ligand)
chain: WSKHAKPVACSGDWLGVRDKCFYFSDDTRNWTASKIFCSLQKAELAQIDTQEDMEFLKRYAGTDMHWIGLSRKQGDSWKWTNGTTFNGWFEIIGNGSFAFLSADGVHSSRGFIDIKWICSKPKYFL
